Read-outs that look alike come from different tables or passages of the source.

For series [1], the target named is T1, human thrombin (HT) (Homo sapiens (human), UniProt P00734;P00734 328-363;364-622). In words: nanopore single-molecule titration.
Series [2] deals with T1, human thrombin (HT). Description: nanopore single-molecule.
The target in series [3] is T1, human thrombin (HT). Description: nanopore single-molecule titration. The source holds these as a separate data set.
Series [4] deals with T1, human thrombin (HT). Description: nanopore single-molecule titration. This is another data set of the same source.
Series [5] addresses T1, human thrombin (HT). Description: nanopore single-molecule titration. This is another data set of the same source.

B1: TBA-T3A (structured_DNA)
DNA: GGATGGTGTGGTTGG
As to B1, the dissociation constant (Kd) (in general, the equilibrium constant for the complex coming apart) in the series with human thrombin (HT) [1] turned out to be 6 ± 1 nM.

B2: Random DNA (ssDNA)
DNA: CACCATCACCACCATCAT
In the case of B2, in the series with human thrombin (HT) [2], the binding result is “no binding”.

B3: TBA-T12A (structured_DNA)
DNA: GGTTGGTGTGGATGG
In turn, B3 gave a Kd with human thrombin (HT) [3] of 7 ± 1 nM.

B4: TBA (structured_DNA)
DNA: GGTTGGTGTGGTTGG
Consider B4, for which the Kd came out at 8 ± 1 nM with human thrombin (HT) [4] and 13 ± 3 nM in the series with human thrombin (HT) [5].

Source of the values: article PMC4410316.
